This note sets out measurements from the supplement of paper PMC9112550, “Optimization of the antimicrobial peptide Bac7 by deep mutational scanning” (BMC Biology, 2022).
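Further: peptides expressed intracellularly from a pBAD plasmid library in pooled LB shake-flask culture, induced with 0.3% L-arabinose, DNA abundance read by NGS, three biological replicates, DESeq2 with apeglm shrinkage.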

This data set relates to Escherichia coli TOP10. Nature of the data set: shrunken log2 fold change of peptide-encoding DNA abundance (4.5 h post-induction vs induction); higher = less antimicrobial activity (less host growth inhibition). Conditions: time post-induction: 4.5 h; library: site-saturation at positions 5, 18, 19, 20.
For the sequence RRIRGRPPRLPRPRPRPCWKPRP, the “shrunken log2 fold change” value came out at 0.175. The same measure for RRIRERPPRLPRPRPRPANAPRP: -0.0563. In the case of RRIRMRPPRLPRPRPRPLTRPRP it was 0.608. On to RRIRDRPPRLPRPRPRPGHWPRP, for which the “shrunken log2 fold change” value was 0.315. The same measure for RRIRTRPPRLPRPRPRPDANPRP: -0.103; for RRIRNRPPRLPRPRPRPEACPRP: 0.0475. In the case of RRIRRRPPRLPRPRPRPLMVPRP it was -0.161; in that of RRIRDRPPRLPRPRPRPWCWPRP, 0.036.

As for RRIRWRPPRLPRPRPRPMDHPRP, the “shrunken log2 fold change” value was -0.128.

For the sequence RRIRMRPPRLPRPRPRPIRFPRP, the “shrunken log2 fold change” value is -0.133. In the case of RRIRHRPPRLPRPRPRPTVYPRP it was -0.219; in that of RRIRYRPPRLPRPRPRPYDWPRP, -0.886; in that of RRIRIRPPRLPRPRPRPPEYPRP, -0.186. RRIRQRPPRLPRPRPRPCHIPRP: the “shrunken log2 fold change” value was -0.0316. As to RRIRARPPRLPRPRPRPGRIPRP, the “shrunken log2 fold change” value was 0.148. In the case of RRIRWRPPRLPRPRPRPGDSPRP it was -0.163; in that of RRIRFRPPRLPRPRPRPDNWPRP, -0.25.

For the sequence RRIRYRPPRLPRPRPRPTKTPRP, the “shrunken log2 fold change” value was -0.0705. Turning to RRIRDRPPRLPRPRPRPGPGPRP, the “shrunken log2 fold change” value is 0.764.

As to RRIRVRPPRLPRPRPRPRGGPRP, the “shrunken log2 fold change” value stood at 0.609. In the case of RRIRDRPPRLPRPRPRPHMCPRP it was 0.0514. The same measure for RRIRQRPPRLPRPRPRPGHQPRP: -0.00101; for RRIRERPPRLPRPRPRPGNSPRP: -0.115; for RRIRTRPPRLPRPRPRPAGTPRP: 0.0902. The same measure for RRIRARPPRLPRPRPRPCQPPRP: -0.0379. In the case of RRIRGRPPRLPRPRPRPSVLPRP, the “shrunken log2 fold change” value amounted to 0.389. The same measure for RRIRSRPPRLPRPRPRPMTVPRP: -0.0124; for RRIRCRPPRLPRPRPRPPRMPRP: 0.671. The same measure for RRIRNRPPRLPRPRPRPNENPRP: 0.215. In the case of RRIRHRPPRLPRPRPRPRYDPRP it was -0.0205.

For the sequence RRIRQRPPRLPRPRPRPFNQPRP, the “shrunken log2 fold change” value is 0.00312.

Turning to RRIRVRPPRLPRPRPRPHMCPRP, the “shrunken log2 fold change” value was -0.301. The same measure for RRIRQRPPRLPRPRPRPHYLPRP: -0.0046; for RRIRKRPPRLPRPRPRPDGDPRP: 3.21. On to RRIRARPPRLPRPRPRPEITPRP, for which the “shrunken log2 fold change” value was determined as 0.784.

For RRIRCRPPRLPRPRPRPPMIPRP, the “shrunken log2 fold change” value was -0.0902.

As to RRIRERPPRLPRPRPRPSFLPRP, the “shrunken log2 fold change” value was -0.789. In the case of RRIRARPPRLPRPRPRPNDYPRP it was -0.471; in that of RRIRVRPPRLPRPRPRPAMNPRP, -0.498. The same measure for RRIRRRPPRLPRPRPRPHSSPRP: -0.00646.

Take RRIRMRPPRLPRPRPRPLHYPRP: the “shrunken log2 fold change” value is -0.173.

Take RRIRPRPPRLPRPRPRPNRQPRP: the “shrunken log2 fold change” value was -0.0342. With RRIRIRPPRLPRPRPRPSACPRP, the “shrunken log2 fold change” value is -0.561. Consider RRIRDRPPRLPRPRPRPVEGPRP, for which the “shrunken log2 fold change” value amounted to 0.211.

Consider RRIRDRPPRLPRPRPRPFGRPRP, for which the “shrunken log2 fold change” value was -0.0125. The same measure for RRIRYRPPRLPRPRPRPQNDPRP: -1.63; for RRIRFRPPRLPRPRPRPFQWPRP: -0.507.

Consider RRIRPRPPRLPRPRPRPRFHPRP, for which the “shrunken log2 fold change” value is -0.108. The same measure for RRIRQRPPRLPRPRPRPKLIPRP: -0.0954; for RRIRDRPPRLPRPRPRPPLPPRP: 0.737; for RRIRYRPPRLPRPRPRPSQCPRP: -0.115.

For the sequence RRIRDRPPRLPRPRPRPCWGPRP, the “shrunken log2 fold change” value stood at 0.0493.

In the case of RRIRNRPPRLPRPRPRPQTGPRP, the “shrunken log2 fold change” value was -0.505. In the case of RRIRQRPPRLPRPRPRPPQLPRP it was 0.424; in that of RRIRKRPPRLPRPRPRPLNKPRP, -0.0644; in that of RRIRMRPPRLPRPRPRPTYKPRP, -0.0666.

Regarding RRIRHRPPRLPRPRPRPIPFPRP, the “shrunken log2 fold change” value worked out at 0.0406. In the case of RRIRCRPPRLPRPRPRPGIFPRP it was 0.0252. RRIRARPPRLPRPRPRPTADPRP: the “shrunken log2 fold change” value was 0.83. The same measure for RRIRDRPPRLPRPRPRPMKVPRP: -0.0768; for RRIRTRPPRLPRPRPRPCQIPRP: 0.0623. The same measure for RRIRLRPPRLPRPRPRPCRLPRP: -0.286; for RRIRLRPPRLPRPRPRPLLQPRP: 0.138. RRIRKRPPRLPRPRPRPPQAPRP: the “shrunken log2 fold change” value was 0.0481. Consider RRIRMRPPRLPRPRPRPQTCPRP, for which the “shrunken log2 fold change” value worked out at 0.0193. In the case of RRIRYRPPRLPRPRPRPQNCPRP it was -0.0075.

RRIRERPPRLPRPRPRPVNRPRP: the “shrunken log2 fold change” value is -0.294. RRIRQRPPRLPRPRPRPAIDPRP: the “shrunken log2 fold change” value turned out to be 0.0942.

As to RRIRIRPPRLPRPRPRPFNAPRP, the “shrunken log2 fold change” value was -0.551. The same measure for RRIRNRPPRLPRPRPRPEFGPRP: -0.106; for RRIRDRPPRLPRPRPRPNTQPRP: 0.0704; for RRIRYRPPRLPRPRPRPGWWPRP: 0.316. For the sequence RRIRFRPPRLPRPRPRPEDHPRP, the “shrunken log2 fold change” value was determined as 0.000834.

Take RRIRGRPPRLPRPRPRPNEYPRP: the “shrunken log2 fold change” value was determined as 0.249. For the sequence RRIRHRPPRLPRPRPRPLIWPRP, the “shrunken log2 fold change” value was -0.538. In the case of RRIRGRPPRLPRPRPRPVYEPRP it was 0.271; in that of RRIRNRPPRLPRPRPRPWWDPRP, -0.00674; in that of RRIRERPPRLPRPRPRPVMNPRP, -0.0808.

Regarding RRIRERPPRLPRPRPRPKAPPRP, the “shrunken log2 fold change” value came out at 0.124.

For RRIRDRPPRLPRPRPRPRIYPRP, the “shrunken log2 fold change” value was -0.173. In the case of RRIRHRPPRLPRPRPRPINDPRP it was -0.887; in that of RRIRYRPPRLPRPRPRPSEHPRP, -0.488; in that of RRIRGRPPRLPRPRPRPQRVPRP, 0.423. The same measure for RRIRCRPPRLPRPRPRPSWEPRP: -0.0769; for RRIRSRPPRLPRPRPRPVQRPRP: 0.363.

On to RRIRKRPPRLPRPRPRPLEVPRP, for which the “shrunken log2 fold change” value was 0.0569. In the case of RRIRKRPPRLPRPRPRPMRYPRP it was 0.239. In the case of RRIRFRPPRLPRPRPRPCIFPRP it was -0.361; in that of RRIRIRPPRLPRPRPRPPYSPRP, 0.0677. For the sequence RRIRMRPPRLPRPRPRPYQLPRP, the “shrunken log2 fold change” value was determined as 0.0393. In the case of RRIRMRPPRLPRPRPRPGSDPRP it was 1.4; in that of RRIRARPPRLPRPRPRPFAEPRP, 0.762; in that of RRIRVRPPRLPRPRPRPCIPPRP, -0.467. The same measure for RRIRKRPPRLPRPRPRPKEDPRP: 0.795; for RRIRDRPPRLPRPRPRPVTRPRP: 0.348; for RRIRYRPPRLPRPRPRPIHEPRP: 0.00548.

For RRIRDRPPRLPRPRPRPWFHPRP, the “shrunken log2 fold change” value was -0.00884.

Consider RRIRARPPRLPRPRPRPKKNPRP, for which the “shrunken log2 fold change” value was found to be 0.441.

In the case of RRIRIRPPRLPRPRPRPPCQPRP, the “shrunken log2 fold change” value was 0.0801. The same measure for RRIRYRPPRLPRPRPRPICAPRP: -0.211; for RRIRHRPPRLPRPRPRPLHSPRP: -0.151. In the case of RRIRVRPPRLPRPRPRPCNSPRP it was -0.116; in that of RRIRTRPPRLPRPRPRPQGEPRP, -0.0823. The same measure for RRIRSRPPRLPRPRPRPQIKPRP: 0.0447; for RRIRVRPPRLPRPRPRPEHDPRP: -0.249; for RRIRARPPRLPRPRPRPFNIPRP: -0.307. As to RRIRTRPPRLPRPRPRPCLTPRP, the “shrunken log2 fold change” value is -0.319. In the case of RRIRCRPPRLPRPRPRPFHGPRP it was -0.036. In the case of RRIRMRPPRLPRPRPRPDVHPRP it was 0.109; in that of RRIRTRPPRLPRPRPRPPGWPRP, 0.758; in that of RRIRERPPRLPRPRPRPWLRPRP, 0.0269.

On to RRIRDRPPRLPRPRPRPRNYPRP, for which the “shrunken log2 fold change” value was -0.313.

For the sequence RRIRLRPPRLPRPRPRPLATPRP, the “shrunken log2 fold change” value is 0.38. The same measure for RRIRVRPPRLPRPRPRPAEYPRP: -0.124; for RRIRYRPPRLPRPRPRPKICPRP: -0.0342.

For the sequence RRIRQRPPRLPRPRPRPIQIPRP, the “shrunken log2 fold change” value was -0.105. In the case of RRIRPRPPRLPRPRPRPCWFPRP it was -0.0933; in that of RRIRTRPPRLPRPRPRPQIKPRP, -0.0374; in that of RRIRLRPPRLPRPRPRPHYRPRP, -0.0911. The same measure for RRIRWRPPRLPRPRPRPTYGPRP: 0.0553; for RRIRSRPPRLPRPRPRPQLAPRP: 0.0789.

Regarding RRIRYRPPRLPRPRPRPPHVPRP, the “shrunken log2 fold change” value is -0.142. In the case of RRIRGRPPRLPRPRPRPTPAPRP it was 1.43; in that of RRIRDRPPRLPRPRPRPPHRPRP, 0.195; in that of RRIRWRPPRLPRPRPRPVNRPRP, -0.00204.
